The labels stand for the following.
B1: HEEH_KT_rd6_3546 (parent)
chain: SEEDKEREHWERLNRDFELRVLDTTFIAHHAEEVIKLLRWLEK

Variants of B1 are the subject of the series. The series can be described thus: folding stability dG (cDNA display proteolysis); higher = more stable. The settings on record: PBS, room temperature.
As for SEEDKEREHWERLNRDFELRVLKTTFIAHHAEEVIKLLRWLEK, the “folding stability dG” value turned out to be 1.6 kcal/mol. The result for SEEDKEREHWERLNRDFELRVLYTTFIAHHAEEVIKLLRWLEK reads 2.92 kcal/mol. On to SEEDKEREHWERLNRDFELRVLHTTFIAHHAEEVIKLLRWLEK, for which the “folding stability dG” value stood at 2.01 kcal/mol. SEEDKEREHWERLNRDFELRVLGTTFIAHHAEEVIKLLRWLEK: the “folding stability dG” value is 1.64 kcal/mol. On to SEEDKEREHWERLNRDFELRVLWTTFIAHHAEEVIKLLRWLEK, for which the “folding stability dG” value was determined as 2.85 kcal/mol. Consider SEEDKEREHWERLNRDFELRVLRTTFIAHHAEEVIKLLRWLEK, for which the “folding stability dG” value is 1.87 kcal/mol.

With SEEDKEREHWERLNRDFELRVLITTFIAHHAEEVIKLLRWLEK, the “folding stability dG” value was 3.03 kcal/mol. Regarding SEEDKEREHWERLNRDFELRVLVTTFIAHHAEEVIKLLRWLEK, the “folding stability dG” value is 3 kcal/mol. SEEDKEREHWERLNRDFELRVLATTFIAHHAEEVIKLLRWLEK: the “folding stability dG” value was determined as 2.35 kcal/mol. Take SEEDKEREHWERLNRDFELRVLMTTFIAHHAEEVIKLLRWLEK: the “folding stability dG” value was 2.76 kcal/mol. As for SEEDKEREHWERLNRDFELRVLFTTFIAHHAEEVIKLLRWLEK, the “folding stability dG” value worked out at 3.18 kcal/mol. The result for SEEDKEREHWERLNRDFELRVLQTTFIAHHAEEVIKLLRWLEK reads 1.64 kcal/mol. Regarding SEEDKEREHWERLNRDFELRVLLTTFIAHHAEEVIKLLRWLEK, the “folding stability dG” value is 2.86 kcal/mol. The result for SEEDKEREHWERLNRDFELRVLTTTFIAHHAEEVIKLLRWLEK reads 2.27 kcal/mol. For the variant SEEDKEREHWERLNRDFELRVLETTFIAHHAEEVIKLLRWLEK, the “folding stability dG” value worked out at 1.29 kcal/mol. The result for SEEDKEREHWERLNRDFELRVLSTTFIAHHAEEVIKLLRWLEK reads 1.94 kcal/mol; that for SEEDKEREHWERLNRDFELRVLNTTFIAHHAEEVIKLLRWLEK, 1.45 kcal/mol. With SEEDKEREHWERLNRDFEFRVLDTTFIAHHAEEVIKLLRWLEK, the “folding stability dG” value was 1.42 kcal/mol. For SEEDKEREHWERLNRDFEPRVLDTTFIAHHAEEVIKLLRWLEK, the “folding stability dG” value was 0.862 kcal/mol. Turning to SEEDKEREHWERLNRDFEKRVLDTTFIAHHAEEVIKLLRWLEK, the “folding stability dG” value turned out to be 0.521 kcal/mol.

For SEEDKEREHWERLNRDFEWRVLDTTFIAHHAEEVIKLLRWLEK, the “folding stability dG” value stood at 1.49 kcal/mol. The result for SEEDKEREHWERLNRDFEVRVLDTTFIAHHAEEVIKLLRWLEK reads 1.05 kcal/mol.

Consider SEEDKEREHWERLNRDFERRVLDTTFIAHHAEEVIKLLRWLEK, for which the “folding stability dG” value came to 1.21 kcal/mol.

As for SEEDKEREHWERLNRDFEHRVLDTTFIAHHAEEVIKLLRWLEK, the “folding stability dG” value amounted to 0.971 kcal/mol. Take SEEDKEREHWERLNRDFEARVLDTTFIAHHAEEVIKLLRWLEK: the “folding stability dG” value came out at 0.896 kcal/mol. In the case of SEEDKEREHWERLNRDFETRVLDTTFIAHHAEEVIKLLRWLEK, the “folding stability dG” value came to 0.795 kcal/mol.

For the variant SEEDKEREHWERLNRDFEYRVLDTTFIAHHAEEVIKLLRWLEK, the “folding stability dG” value is 1.14 kcal/mol.

Regarding SEEDKEREHWERLNRDFEGRVLDTTFIAHHAEEVIKLLRWLEK, the “folding stability dG” value stood at 0.617 kcal/mol. With SEEDKEREHWERLNRDFEMRVLDTTFIAHHAEEVIKLLRWLEK, the “folding stability dG” value turned out to be 0.996 kcal/mol. Regarding SEEDKEREHWERLNRDFENRVLDTTFIAHHAEEVIKLLRWLEK, the “folding stability dG” value came to 0.808 kcal/mol. In the case of SEEDKEREHWERLNRDFEDRVLDTTFIAHHAEEVIKLLRWLEK, the “folding stability dG” value worked out at 0.732 kcal/mol. SEEDKEREHWERLNRDFESRVLDTTFIAHHAEEVIKLLRWLEK: the “folding stability dG” value came out at 0.796 kcal/mol. For the variant SEEDKEREHWERLNRDFECRVLDTTFIAHHAEEVIKLLRWLEK, the “folding stability dG” value stood at 2.03 kcal/mol. The result for SEEDKEREHWERLNRDFEQRVLDTTFIAHHAEEVIKLLRWLEK reads 0.821 kcal/mol; that for SEEDKEREHWERLNRDFEERVLDTTFIAHHAEEVIKLLRWLEK, 0.795 kcal/mol; that for SEEDKEREHWERLNRDFEIRVLDTTFIAHHAEEVIKLLRWLEK, 1.39 kcal/mol. Consider SEEDKEREHWERLNRDFELRVQDTTFIAHHAEEVIKLLRWLEK, for which the “folding stability dG” value stood at 0.891 kcal/mol. Consider SEEDKEREHWERLNRDFELRVFDTTFIAHHAEEVIKLLRWLEK, for which the “folding stability dG” value worked out at 1.42 kcal/mol. In the case of SEEDKEREHWERLNRDFELRVRDTTFIAHHAEEVIKLLRWLEK, the “folding stability dG” value was determined as 1.07 kcal/mol. Consider SEEDKEREHWERLNRDFELRVADTTFIAHHAEEVIKLLRWLEK, for which the “folding stability dG” value was 1.06 kcal/mol.

For the variant SEEDKEREHWERLNRDFELRVHDTTFIAHHAEEVIKLLRWLEK, the “folding stability dG” value amounted to 0.824 kcal/mol. In the case of SEEDKEREHWERLNRDFELRVIDTTFIAHHAEEVIKLLRWLEK, the “folding stability dG” value turned out to be 1.53 kcal/mol. The result for SEEDKEREHWERLNRDFELRVPDTTFIAHHAEEVIKLLRWLEK reads 0.989 kcal/mol. Regarding SEEDKEREHWERLNRDFELRVVDTTFIAHHAEEVIKLLRWLEK, the “folding stability dG” value is 1.18 kcal/mol.

For SEEDKEREHWERLNRDFELRVKDTTFIAHHAEEVIKLLRWLEK, the “folding stability dG” value was found to be 0.899 kcal/mol. For the variant SEEDKEREHWERLNRDFELRVDDTTFIAHHAEEVIKLLRWLEK, the “folding stability dG” value was determined as 0.869 kcal/mol. In the case of SEEDKEREHWERLNRDFELRVMDTTFIAHHAEEVIKLLRWLEK, the “folding stability dG” value was determined as 1.3 kcal/mol. The result for SEEDKEREHWERLNRDFELRVEDTTFIAHHAEEVIKLLRWLEK reads 0.622 kcal/mol; that for SEEDKEREHWERLNRDFELRVSDTTFIAHHAEEVIKLLRWLEK, 0.925 kcal/mol.

In the case of SEEDKEREHWERLNRDFELRVNDTTFIAHHAEEVIKLLRWLEK, the “folding stability dG” value stood at 1.06 kcal/mol. As to SEEDKEREHWERLNRDFELRVYDTTFIAHHAEEVIKLLRWLEK, the “folding stability dG” value came out at 1.67 kcal/mol. As for SEEDKEREHWERLNRDFELRVGDTTFIAHHAEEVIKLLRWLEK, the “folding stability dG” value is 1.48 kcal/mol. For SEEDKEREHWERLNRDFELRVWDTTFIAHHAEEVIKLLRWLEK, the “folding stability dG” value worked out at 1.35 kcal/mol. The result for SEEDKEREHWERLNRDFELRVTDTTFIAHHAEEVIKLLRWLEK reads 0.948 kcal/mol; that for SEEDKEREHWERLNRDFELRVLDTDFIAHHAEEVIKLLRWLEK, 1.2 kcal/mol. SEEDKEREHWERLNRDFELRVLDTFFIAHHAEEVIKLLRWLEK: the “folding stability dG” value was 2.35 kcal/mol.

For the variant SEEDKEREHWERLNRDFELRVLDTEFIAHHAEEVIKLLRWLEK, the “folding stability dG” value amounted to 1.31 kcal/mol. In the case of SEEDKEREHWERLNRDFELRVLDTAFIAHHAEEVIKLLRWLEK, the “folding stability dG” value worked out at 1.46 kcal/mol. Turning to SEEDKEREHWERLNRDFELRVLDTCFIAHHAEEVIKLLRWLEK, the “folding stability dG” value is 1.75 kcal/mol.

Source of the values: the MegaScale stability set (Tsuboyama et al. 2023).
